Biological target: His-tagged SARS-CoV-2 nucleocapsid (SARS-CoV-2, UniProt P0DTC9 1-419)
Assay: pull-down

B1: GST-GSDMD mutant lacking amino acids 265-284 (natural protein)
chain: MGSAFERVVRRVVQELDHGGEFIPVTSLQSSTGFQPYCLVVRKPSSSWFWKPRYKCVNLSIKDILEPDAAEPDVQRGRSFHFYDAMDGQIQGSVELAAPGQAKIAGGAAVSDSSSTSMNVYSLSVDPNTWQTLLHERHLRQPEHKVLQQLRSRGDNVYVVTEVLQTQKEVEVTRTHKREGSGRFSLPGATCLQGEGQGHLSQKKTVTIPSGSTLAFRVAQLVIDSDLDVLLFPDKKQRTFQPPATGHKRSTSEGAWPQLPSGLSEDFQGLRAEVETISKELELLDRELCQLLLEGLEGVLRDQLALRALEEALEQGQSLGPVEPLDGPAGAVLECLVLSSGMLVPELAIPVVYLLGALTMLSETQHKLLAEALESQTLLGPLELVGSLLEQSAPWQERSTMSLPPGLLGNSWGEGAPAWVLLDECGLELGEDTPHVCWEPQAQGRMCALYASLALLSGLSQEPH
B1: binds.
